Experimental data published in patent US11365402B2, “Internal protein tags” (Promega Corporation, priority 2014, dated 2022).

System: Anti-VEGF antibody
Assay: Target antibody driven NANOLUC bioluminescence complementation (NLpep114-VEGFA targets, NLpoly11S-protein G, anti-VEGF antibody)
Format: cell-based
Details: HEK293T cells
Description: FIG. 6 depicts a schematic of how the assay components are used to screen for antibody binding to target protein by way of antibody driven NANOLUC bioluminescence complementation between NLpoly11S-fused protein G and internally tagged NLpep114 target protein. The Target, containing an internal pep114 tag, is expressed in mammalian cell culture with an IL6 signal peptide (SP). The SP directs the Target to the secretion pathway. The Target can be assayed in the media (+/−) cells. In the example, a purified preparation of the Large Bit (11S-protein G fusion protein) and Test Antibody are added directly to the mammalian cell culture. The protein G domain of the Large Bit binds to the Fc region of the Test Antibody between the Heavy Chain Constant Domains 2 and 3. If the Test Antibody binds to the Target, the Large and Small Bits can come together to form an active luminesent complex that is detected by furimazine.
NLpep114-target fusion construct DNA was diluted into carrier DNA (pGEM3Zf(−); Promega) at bug total DNA at a mass ratio of 1:10. DNA:FuGENE complexes were formed at a ratio of 1:3 (ug DNA/ul FuGENE), according to manufacturer's protocol (Promega). One part of the transfection complex was mixed with 20 parts (volume/volume) of HEK293T cells (ATCC) suspended at a density of 2×10^5 cells/ml in DMEM (Gibco)+10% FBS (Hyclone). Cells (50 ul/well) were dispensed into 96-well tissue culture plates and incubated in a humidified, 37° C./5% CO2 incubator for 18-24 hours.
HEK293T cells (ATCC) were transfected with three NLpep114-VEGFA DNAs as described above and incubated overnight. The cells were serum starved for 4 hours under the same conditions by replacing the media with an equal volume of (Gibco). NLpoly11S(15)pG in 1×PBS/0.1% BSA (Promega) was added (25 ul/well) to a final concentration of 0.5 ug/ml (12 nM). Anti-VEGF antibody (R&D Systems, #293) in 1×PBS/0.1% BSA (Promega) was added (25 ul/well) to a final concentration of 0-0.73 ug/ml (0-5.3 nM). After the addition of LCS Reagent (Promega, 100 ul/well, 10 μM final concentration), luciferase activity was measured using an Infinity F500 microtiter plate reader (Tecan).

B1: ATG-1915: Control Target with a terminal Small Bit: HALOTAG-VEGFA-165 with C-terminal NLpep114 tag (SEQ ID NO: 2577) (protein)
chain: MNSFSTSAFGPVAFSLGLLLVLPAAFPAPRAEIGTGFPFDPHYVEVLGERMHYVDVGPRDGTPVLFLHGNPTSSYVWRNIIPHVAPTHRCIAPDLIGMGKSDKPDLGYFFDDHVRFMDAFIEALGLEEVVLVIHDWGSALGFHWAKRNPERVKGIAFMEFIRPIPTWDEWPEFARETFQAFRTTDVGRKLIIDQNVFIEGTLPMGVVRPLTEVEMDHYREPFLNPVDREPLWRFPNELPIAGEPANIVALVEEYMDWLHQSPVPKLLFWGTPGVLIPPAEAARLAKSLPNCKAVDIGPGLNLLQEDNPDLIGSEIARWLSTLEISGEPTTEDLYFQSDNAPMAEGGGQNHHEVVKFMDVYQRSYCHPIETLVDIFQEYPDEIEYIFKPSCVPLMRCGGCCNDEGLECVPTEESNITMQIMRIKPHQGQHIGEMSFLQHNKCECRPKKDRARQENPCGPCSERRKHLFVQDPQTCKCSCKNTDSRCKARQLELNERTCRCDKPRRGSSGVTGYRLFEEIL
For B1, the “overall luminescence signal, compared among constructs” value (anti-VEGF antibody) was “highest signal” and the “signal over background (increase in bioluminescence with antibody over assay components without antibody)” value (anti-VEGF antibody 0-0.73 ug/ml (0-5.3 nM), NLpoly11S-protein G 0.5 ug/ml (12 nM)) was “over 400 fold”.

B2: ATG-1946: Experimental Target with the Small Bit between one large and one small domain (C-terminal FLAG) (SEQ ID NO: 2579) (protein)
chain: MNSFSTSAFGPVAFSLGLLLVLPAAFPAPRAEIGTGFPFDPHYVEVLGERMHYVDVGPRDGTPVLFLHGNPTSSYVWRNIIPHVAPTHRCIAPDLIGMGKSDKPDLGYFFDDHVRFMDAFIEALGLEEVVLVIHDWGSALGFHWAKRNPERVKGIAFMEFIRPIPTWDEWPEFARETFQAFRTTDVGRKLIIDQNVFIEGTLPMGVVRPLTEVEMDHYREPFLNPVDREPLWRFPNELPIAGEPANIVALVEEYMDWLHQSPVPKLLFWGTPGVLIPPAEAARLAKSLPNCKAVDIGPGLNLLQEDNPDLIGSEIARWLSTLEISGEPTTEDLYFQSDNAPMAEGGGQNHHEVVKFMDVYQRSYCHPIETLVDIFQEYPDEIEYIFKPSCVPLMRCGGCCNDEGLECVPTEESNITMQIMRIKPHQGQHIGEMSFLQHNKCECRPKKDRARQENPCGPCSERRKHLFVQDPQTCKCSCKNTDSRCKARQLELNERTCRCDKPRRGSSGVTGYRLFEEILGSDYKDDDDK
For B2, the “signal loss relative to ATG-1915 (C-terminal NLpep114 tag)” value (anti-VEGF antibody) was 40%.

B3: ATG-1917: Experimental Target with the Small Bit (NLpep114) between two large domains (SEQ ID NO: 2578) (protein)
chain: MNSFSTSAFGPVAFSLGLLLVLPAAFPAPRAEIGTGFPFDPHYVEVLGERMHYVDVGPRDGTPVLFLHGNPTSSYVWRNIIPHVAPTHRCIAPDLIGMGKSDKPDLGYFFDDHVRFMDAFIEALGLEEVVLVIHDWGSALGFHWAKRNPERVKGIAFMEFIRPIPTWDEWPEFARETFQAFRTTDVGRKLIIDQNVFIEGTLPMGVVRPLTEVEMDHYREPFLNPVDREPLWRFPNELPIAGEPANIVALVEEYMDWLHQSPVPKLLFWGTPGVLIPPAEAARLAKSLPNCKAVDIGPGLNLLQEDNPDLIGSEIARWLSTLEISGEPTTEDLYFQSDNVTGYRLFEEILGSSGAPMAEGGGQNHHEVVKFMDVYQRSYCHPIETLVDIFQEYPDEIEYIFKPSCVPLMRCGGCCNDEGLECVPTEESNITMQIMRIKPHQGQHIGEMSFLQHNKCECRPKKDRARQENPCGPCSERRKHLFVQDPQTCKCSCKNTDSRCKARQLELNERTCRCDKPRR
In the case of B3, the “signal reduction relative to ATG-1915 (C-terminal NLpep114 tag)” value (anti-VEGF antibody) is reported as 5 fold.
